This series addresses T1, amphioxus ER (amphiER) (Branchiostoma floridae, UniProt B3V8B7 1-705).
T1 sequence: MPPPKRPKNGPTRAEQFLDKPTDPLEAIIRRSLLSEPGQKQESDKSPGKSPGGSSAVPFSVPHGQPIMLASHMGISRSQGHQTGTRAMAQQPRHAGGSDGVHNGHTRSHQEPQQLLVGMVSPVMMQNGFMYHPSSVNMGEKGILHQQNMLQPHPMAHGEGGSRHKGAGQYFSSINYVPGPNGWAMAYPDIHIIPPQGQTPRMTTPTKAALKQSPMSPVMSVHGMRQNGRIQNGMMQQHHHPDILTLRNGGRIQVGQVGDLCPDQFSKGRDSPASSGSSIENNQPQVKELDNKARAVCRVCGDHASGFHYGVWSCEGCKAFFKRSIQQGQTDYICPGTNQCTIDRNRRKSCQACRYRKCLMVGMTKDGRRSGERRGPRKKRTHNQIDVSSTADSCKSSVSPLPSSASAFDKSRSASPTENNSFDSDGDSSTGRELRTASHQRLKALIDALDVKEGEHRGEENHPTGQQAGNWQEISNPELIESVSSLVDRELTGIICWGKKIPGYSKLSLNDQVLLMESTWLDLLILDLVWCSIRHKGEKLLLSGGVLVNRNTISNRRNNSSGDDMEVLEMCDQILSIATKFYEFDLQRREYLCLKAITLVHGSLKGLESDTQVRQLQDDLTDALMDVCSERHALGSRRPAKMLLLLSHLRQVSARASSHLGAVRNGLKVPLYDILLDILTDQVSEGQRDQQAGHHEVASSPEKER
The experiment in a line: EMSA; EMSA as previously described (ref 93); buffer, salt, pH and temperature not given; in vitro translated proteins in reticulocyte lysate; 10- and 100-fold molar excess of competitors. Conditions: protein: ivt; chain copies: 2; label: 32P; blunt (only one strand printed; 30 bp stated; strand is nearly self-complementary).

B1: consensus ERE (dsDNA)
DNA 1: CGGGCCGAGGTCACAGTGACCTCGGCCCGT
DNA 2: ACGGGCCGAGGTCACTGTGACCTCGGCCCG
Regarding B1, the binding result is listed as “binds”.

For the origin of these results see PMC2529310, “An amphioxus orthologue of the estrogen receptor that does not bind estradiol: Insights into estrogen receptor evolution”.
